Measured values: US20200317817A1 (XOMA US, published 2020)
Numbering of substitutions follows the chain as printed.

Experiments:
[1] = molecular target: T1, rat PTH1R on UMR106 cells (rat, UniProt P25961 27-591); assay: cell-based or functional assay
T1 sequence (looked up): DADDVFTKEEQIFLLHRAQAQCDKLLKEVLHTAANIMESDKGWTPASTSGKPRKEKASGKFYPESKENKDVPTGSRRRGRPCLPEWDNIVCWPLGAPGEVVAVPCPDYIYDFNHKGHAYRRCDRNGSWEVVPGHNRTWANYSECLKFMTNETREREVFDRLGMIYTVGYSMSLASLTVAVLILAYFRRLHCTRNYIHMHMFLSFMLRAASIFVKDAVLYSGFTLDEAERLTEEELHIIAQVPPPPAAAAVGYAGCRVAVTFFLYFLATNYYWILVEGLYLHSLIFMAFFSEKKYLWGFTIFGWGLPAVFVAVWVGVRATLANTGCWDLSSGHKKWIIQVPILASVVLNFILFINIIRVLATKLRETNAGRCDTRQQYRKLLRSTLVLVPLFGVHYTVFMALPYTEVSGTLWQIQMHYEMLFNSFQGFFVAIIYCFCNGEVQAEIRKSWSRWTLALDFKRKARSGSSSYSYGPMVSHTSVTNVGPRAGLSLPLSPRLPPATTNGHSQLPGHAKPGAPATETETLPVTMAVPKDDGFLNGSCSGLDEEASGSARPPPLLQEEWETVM

[2] = molecular target: T2, human PTH1R overexpressed on Saos-2 cells (human, UniProt Q03431 27-593); assay: flow cytometry on Saos-2 cells overexpressing human PTH1R, in the presence of 3 uM PTHrP, PE anti-human IgG
T2 construct: whole, on cells; also called Saos-2 human PTH1R cells
T2 sequence (looked up): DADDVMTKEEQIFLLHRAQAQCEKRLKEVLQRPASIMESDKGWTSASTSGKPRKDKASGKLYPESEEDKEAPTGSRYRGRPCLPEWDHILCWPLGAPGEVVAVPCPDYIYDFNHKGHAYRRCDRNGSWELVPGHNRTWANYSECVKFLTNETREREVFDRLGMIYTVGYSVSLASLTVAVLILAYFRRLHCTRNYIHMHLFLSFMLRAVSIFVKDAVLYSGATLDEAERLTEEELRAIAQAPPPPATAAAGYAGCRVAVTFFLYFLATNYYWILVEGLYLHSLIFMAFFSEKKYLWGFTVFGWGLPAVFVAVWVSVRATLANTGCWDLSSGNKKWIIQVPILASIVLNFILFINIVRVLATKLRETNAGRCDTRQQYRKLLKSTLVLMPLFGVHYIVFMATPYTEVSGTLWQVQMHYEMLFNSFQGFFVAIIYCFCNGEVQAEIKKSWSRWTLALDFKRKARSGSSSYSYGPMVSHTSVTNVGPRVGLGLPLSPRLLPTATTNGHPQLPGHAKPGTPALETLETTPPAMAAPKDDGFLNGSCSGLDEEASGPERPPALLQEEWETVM
Excerpt: Antibody binding was detected with R-Phycoerythrin anti-human IgG.

[3] = molecular target: T3, mouse PTH1R overexpressed on CHO cells (mouse, UniProt P41593 27-591); assay: cell-based or functional assay
T3 sequence (looked up): T1 sequence (looked up) with S58P, P497L, T518I, T520N, L523I, A528T

[4] = molecular target: T4, human PTH1R overexpressed on CHO cells (human, UniProt Q03431 27-593); assay: cell-based or functional assay
T4 sequence (looked up): T2 sequence (looked up)

[5] = molecular target: T5, human PTH2R overexpressed on CHO cells (human, UniProt P49190 25-550); assay: flow cytometry on CHO cells overexpressing human PTH2R, 1 hr at 4 C, APC anti-human IgG
T5 construct: whole, on cells; also called CHO human PTH2R
T5 sequence (P49190 25-550): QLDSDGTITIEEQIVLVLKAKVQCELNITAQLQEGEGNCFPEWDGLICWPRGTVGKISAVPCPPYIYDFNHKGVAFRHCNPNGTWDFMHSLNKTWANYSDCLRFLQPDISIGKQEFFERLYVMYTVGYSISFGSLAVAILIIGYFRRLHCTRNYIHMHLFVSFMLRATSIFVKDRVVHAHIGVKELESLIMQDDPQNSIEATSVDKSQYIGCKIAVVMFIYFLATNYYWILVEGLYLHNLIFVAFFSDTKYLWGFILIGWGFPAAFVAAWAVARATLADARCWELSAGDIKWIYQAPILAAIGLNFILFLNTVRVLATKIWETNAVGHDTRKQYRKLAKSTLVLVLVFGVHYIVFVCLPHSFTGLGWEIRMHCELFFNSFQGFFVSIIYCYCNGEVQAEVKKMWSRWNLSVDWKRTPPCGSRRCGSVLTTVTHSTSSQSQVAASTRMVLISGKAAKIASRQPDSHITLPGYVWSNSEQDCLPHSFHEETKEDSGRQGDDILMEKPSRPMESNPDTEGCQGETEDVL
Experimental: Increasing concentrations of anti-PTH1R antibodies were added to CHO cells overexpressing human PTH2R and incubated for 1 hr at 4° C. (FIG. 8). Cells were washed twice with FACS Buffer and antibody binding was detected with anti-human IgG APC. […] Anti-KLH.G2 was used a negative control for binding.
PTH2R has a 51% homology to PTH1R. […] Following two washes, cells were incubated with Allophycocyanin (APC) AffiniPure F(ab′)₂ Fragment Goat Anti-Human IgG (H+L) (Jackson ImmunoResearch, West Grove, Pa.) for 20 minutes at 4° C. Cells were washed twice and resuspended in FACS Buffer. Samples were acquired using BD Cytometer (BD Biosciences, San Jose, Calif.) and data were analyzed using FlowJo (FlowJo, LLC, Ashland, Oreg.) and Prism (GraphPad Software, La Jolla, Calif.). […] Anti-KLH.G2 was used a negative control for binding.

% inhibition of cAMP accumulation at 1 µM PTH(1-34), 267 nM IgG [1]: 50% | % inhibition of cAMP accumulation at 1 µM PTHrP(1-34), 267 nM IgG [1]: 41% | EC50 [2]: 656 nM | IC50, inhibition of PTHrP(1-34)-induced cAMP accumulation [3]: 2.66 nM | IC50, inhibition of PTH(1-34)-induced cAMP accumulation [4]: 16.6 nM | IC50, inhibition of PTHrP(1-34)-induced cAMP accumulation [4]: 6.54 nM | binding result [5]: no binding (tested: about 160 nM)
B1: XPA.85.329 (antibody, V domains shown)
VH: QMQLVQSGAEVKKPGSSVKVSCKASGGTFSSYAISWVRQAPGQGLEWMGGIIPIFGTANYAQKFQGRVTITADESTSTAYMELSSLRSEDTAVYYCARGYVVARLWGQGTLVTVSS
VL: DIVMTQTPLSLSVTPGQPASISCKSSQSLLHIDGLTYLYWYLQKPGQPPQLLIYEVSHRFSGVSDKFSGSGSGTDFTLTISRVEAEDVGVYYCMQSLHLPITFGQGTRLEIK
notes: IgG; also called Ab329; XPA.329
